In paper PMC12313019 (2025):

Molecular target: integrin-αvβ1 (UniProt P06756 31-1048; P05556 21-798)
Assay: SPR

integrin-αvβ1, sequence (P06756 31-992, chain 1 of 2): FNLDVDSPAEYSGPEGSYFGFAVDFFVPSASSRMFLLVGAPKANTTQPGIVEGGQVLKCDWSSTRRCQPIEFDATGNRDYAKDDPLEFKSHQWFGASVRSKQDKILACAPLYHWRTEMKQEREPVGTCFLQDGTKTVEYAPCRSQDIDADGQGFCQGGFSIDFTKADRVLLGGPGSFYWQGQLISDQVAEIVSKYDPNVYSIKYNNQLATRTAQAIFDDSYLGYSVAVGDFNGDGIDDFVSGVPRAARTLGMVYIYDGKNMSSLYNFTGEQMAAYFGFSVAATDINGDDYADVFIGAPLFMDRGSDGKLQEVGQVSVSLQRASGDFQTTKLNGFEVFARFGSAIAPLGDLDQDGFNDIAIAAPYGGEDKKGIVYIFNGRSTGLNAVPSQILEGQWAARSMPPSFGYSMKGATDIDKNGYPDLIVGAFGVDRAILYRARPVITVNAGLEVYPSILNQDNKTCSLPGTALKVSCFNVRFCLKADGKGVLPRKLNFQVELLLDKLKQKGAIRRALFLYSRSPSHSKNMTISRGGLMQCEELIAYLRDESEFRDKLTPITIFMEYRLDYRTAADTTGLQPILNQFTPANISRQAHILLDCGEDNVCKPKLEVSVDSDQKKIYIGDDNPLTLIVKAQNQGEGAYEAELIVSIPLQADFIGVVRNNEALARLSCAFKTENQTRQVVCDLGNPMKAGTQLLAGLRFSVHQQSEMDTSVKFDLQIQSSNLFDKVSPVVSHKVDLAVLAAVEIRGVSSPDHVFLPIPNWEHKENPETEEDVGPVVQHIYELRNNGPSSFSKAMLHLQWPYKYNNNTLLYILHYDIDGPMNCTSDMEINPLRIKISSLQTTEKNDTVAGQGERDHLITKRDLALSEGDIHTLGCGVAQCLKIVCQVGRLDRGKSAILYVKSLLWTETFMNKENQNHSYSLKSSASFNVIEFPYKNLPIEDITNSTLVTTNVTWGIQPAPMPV
integrin-αvβ1, sequence (P05556 21-728, chain 2 of 2): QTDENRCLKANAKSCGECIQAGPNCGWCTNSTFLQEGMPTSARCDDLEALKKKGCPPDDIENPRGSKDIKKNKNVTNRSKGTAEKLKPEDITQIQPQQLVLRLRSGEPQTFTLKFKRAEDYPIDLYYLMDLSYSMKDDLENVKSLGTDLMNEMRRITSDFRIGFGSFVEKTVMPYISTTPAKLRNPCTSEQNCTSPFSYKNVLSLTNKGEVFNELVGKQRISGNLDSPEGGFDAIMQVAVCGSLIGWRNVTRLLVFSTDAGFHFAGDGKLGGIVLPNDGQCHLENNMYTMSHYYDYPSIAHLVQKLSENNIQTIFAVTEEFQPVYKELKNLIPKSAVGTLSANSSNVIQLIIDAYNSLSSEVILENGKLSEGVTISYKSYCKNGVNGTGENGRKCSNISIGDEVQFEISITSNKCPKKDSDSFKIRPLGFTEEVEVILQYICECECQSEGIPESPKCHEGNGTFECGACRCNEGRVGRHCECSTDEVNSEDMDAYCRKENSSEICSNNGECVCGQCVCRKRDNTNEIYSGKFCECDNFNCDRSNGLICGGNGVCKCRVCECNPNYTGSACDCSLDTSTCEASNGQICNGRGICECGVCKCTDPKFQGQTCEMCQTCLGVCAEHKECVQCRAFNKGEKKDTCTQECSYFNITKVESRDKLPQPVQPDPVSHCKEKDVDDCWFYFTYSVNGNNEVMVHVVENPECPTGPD

Kd: 43.6 nM
B1: SDC4_(87-131) (peptide)
peptide: NHIPERAGSGSQVPTEPKKLEENEVIPKRISPVEESEDVSNKVSM
modifications: The limits and source of the SPR ligand are not printed. The soluble ectodomain heterodimer is assumed by convention from the UniProt extracellular topology. Alpha-V may be cleaved into heavy and light chains joined by a disulfide. Amine-coupled to a CM5 chip.
